The record followed here is US20210246218A1 (LYVGEN BIOPHARMA SUZHOU, published 2021).

Test [1] deals with T1, recombinant human CD137 receptor protein (human, UniProt Q07011 24-186).
T1 construct: Coated on ELISA plates; also called recombinant human CD137 protein
The test can be described thus: ELISA, huCD137 coated, clone 3712 titrated; full sigmoid, plateau about 1.5. On the procedure:
(§1) For the data shown in FIGS. 16C-D, chimeric CD137 receptor protein samples were diluted in DPBS to 5 μg/mL and then coated onto an ELISA plate (Corning, Catalog number: 9018, high binding) at 50 μL (0.25 μg) per well, and incubated at 4° C. overnight. The plate was decanted and washed once; assay diluent was added at 200 μL/well. After a 1-hour incubation at room temperature, the plate was washed with PBST one time. […] The plate was incubated 1 hour at room temperature and then washed three times with PBST. Goat anti-human IgG-H+L HRP-conjugated at 1:100,000 dilution or goat anti-mouse IgG (H+L) secondary antibody, HRP, 10 at 1:50,000 dilution was added to the plate at 100 μL/well. The plate was incubated 1 hour at room temperature followed by washing with PBST four times. The TMB substrate solution was added 100 μL/well. The color was permitted to develop for 15 minutes and then 100 μL/well 2N H2SO4 was added to terminate the reaction. Absorbance at 450 nm and 620 nm was determined by a Tecan F200 Pro reader.
For orientation: An ELISA detects its analyte on a solid surface through an enzyme-linked reagent.

The target in the next test is T2, Ly048.
T2 chain: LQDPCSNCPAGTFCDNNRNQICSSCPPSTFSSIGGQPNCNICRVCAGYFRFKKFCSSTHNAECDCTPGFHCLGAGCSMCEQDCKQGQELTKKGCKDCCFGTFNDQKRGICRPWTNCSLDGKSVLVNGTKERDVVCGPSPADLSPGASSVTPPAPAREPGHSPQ
The test can be described thus: ELISA, clone 3712-IgG1v coated, CD137 protein titrated (EC50 is a concentration of the CD137 protein); curve only begins to rise: about 0.63 at 100000 ng/mL, no plateau, the fitted EC50 lies beyond the range tested. On the procedure:
The plate was decanted and washed once; assay diluent was added 200 μL/well. After one-hour incubation at room temperature, the plate was washed with PBST one time. CD137 receptor human/mouse chimeras were diluted in assay diluent to 100 or 10 μg/mL, and then a 4-fold serial dilution in assay diluent for 11 points to final concentrations of 100000, 25000, 6250, 1562.5, 390.63, 97.66, 24.41, 6.10, 1.53, 0.38 and 0.095 ng/mL or 10000, 2500, 625, 156.25, 39.06, 9.77, 2.44, 0.61, 0.15, 0.038 and 0.0095 ng/mL. The diluted CD137 receptor was added to the assay plate, 50 μL/well, in duplicate. The plate was incubated one hour at room temperature and then washed three times with PBST. Goat anti-human IgG-H+L HRP conjugated at 1:100,000 20 dilution was added to the plate at 100 μL/well. The plate was then incubated one hour at room temperature followed by washing with PBST four times. The TMB substrate solution was added at 100 μL/well. The color was allowed to develop for 15 minutes, and was stopped with 100 μL/well 2N H2SO4. Absorbance at 450 nm and 620 nm was determined by a Tecan F200 Pro reader.

In test [2] the target is T1, recombinant human CD137 receptor protein. The test can be described thus: ELISA, recombinant human CD137 protein coated, antibody titrated. As for the experimental part: The human or cynomolgus monkey CD137 receptor protein was diluted in DPBS to 1 μg/mL, and then coated onto an ELISA plate (Corning, Catalog number: 9018, high binding) with a volume of 100 μL (0.1 μg) or 50 μL (0.05 μg) per well, and incubated at 4° C. overnight. The plate was decanted and washed once; assay diluent was added 200 μL/well. After a one-hour incubation at room temperature, the plate was washed with PBST one time. […] The plate was incubated one hour at room temperature and then washed three times with PBST. Goat anti-human IgG-H+L HRP conjugated at 1:100,000 dilution was added to the plate at 100 μL/well. The plate was then incubated one hour at room temperature followed by washing with PBST four times. The TMB substrate solution was added at 100 μL/well. The color was allowed to develop for 15 minutes, and was stopped with 100 μL/well 2N H₂SO₄. Absorbance at 450 nm and 620 nm was determined by a Tecan F200 Pro reader.
Graphpad 7.0, “[Agonist] vs. response—Variable slope (four parameters)” was used to plot the binding data and calculate binding EC₅₀ values.

Another test concerns the target T3, Ly050.
T3 chain: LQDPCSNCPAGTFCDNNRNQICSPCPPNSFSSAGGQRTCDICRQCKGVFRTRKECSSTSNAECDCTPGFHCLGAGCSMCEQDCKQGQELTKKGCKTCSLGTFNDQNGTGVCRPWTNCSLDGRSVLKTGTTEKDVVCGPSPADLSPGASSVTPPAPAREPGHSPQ
The test can be described thus: ELISA, CD137 protein coated, clone 3712 titrated; full sigmoid, plateau about 1.9. As for the experimental part:
as §1

A further test addresses T4, human CD137 on cells (human, UniProt Q07011 24-255).
T4 construct: whole, on cells; also called CHO-human CD137; CHO cells over-expressing human CD137
The test can be described thus: flow cytometry, cellular CD137; human CD137. As for the experimental part: CHO cells over-expressing human or cynomolgus monkey CD137 and CHO parental cells were harvested by centrifugation at 1000 g for 3 minutes. The cells were resuspended in ice cold assay buffer at 2*10\hat{ }6/mL and transferred to 96-well V-bottom plate with 100 μL/well. […] The plate was mixed and incubated in the dark for 2 hours at 4° C. The cells were washed 3 times by centrifugation at 1000 g for 3 min and resuspended in ice cold assay buffer containing goat F(ab′)₂ anti-human IgG-Fc (PE), 100 μL/well. The plate was incubated in the dark for another 1 hour at 4° C. The cells were washed 2 times by centrifugation at 1000 g for 3 min and resuspended in ice cold assay buffer containing 2% PFA. The cells were then subjected to the flow cytometer immediately.
Mean fluorescence intensity (MFI) was calculated from the total cell population in the FCM experiments. Graphpad 7.0, “[Agonist] vs. response—Variable slope (four parameters)” was used to plot the binding MFI in dose response and to calculate FCM binding EC₅₀ values.
In general terms: In flow cytometry, cells or beads pass a laser one at a time.

T4 sequence (Q07011 24-255): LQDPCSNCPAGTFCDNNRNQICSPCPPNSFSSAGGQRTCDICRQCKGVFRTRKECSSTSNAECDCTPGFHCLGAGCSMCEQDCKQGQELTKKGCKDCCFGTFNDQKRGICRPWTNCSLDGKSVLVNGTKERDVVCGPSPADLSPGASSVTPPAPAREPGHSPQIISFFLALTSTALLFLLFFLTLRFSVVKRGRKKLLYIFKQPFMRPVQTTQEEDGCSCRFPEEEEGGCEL

B1: Clone 3712-IgG1v (IgG1v/kappa) (antibody)
heavy: QVQLVQSGAEVKKPGASVKVSCKASGYTFAGFEMHWVRQAPGQGLEWMGAIDPKTGGTDYNQKFKDRVTMTRDTSISTAYMELSRLRSDDTAVYYCARDLGYFDVWGQGTLVTVSSASTKGPSVFPLAPSSKSTSGGTAALGCLVKDYFPEPVTVSWNSGALTSGVHTFPAVLQSSGLYSLSSVVTVPSSSLGTQTYICNVNHKPSNTKVDKKVEPKSCDKTHTCPPCPAPELLGPSVFLFPPKPKDTLMISRTPEVTCVVVDVEHEDPEVKFNWYVDGVEVHNAKTKPREEQYNSTYRVVSVLTVLHQDWLNGKEYKCKVSNKALPAPIEKTISKAKGQPREPQVYTLPPSREEMTKNQVSLTCLVKGFYPSDIAVEWESNGQPENNYKTTPPVLDSDGSFFLYSKLTVDKSRWQQGNVFSCSVMHEALHNHYTQKSLSLSPGK
light: DIQMTQSPSSLSASVGDRVTITCRASQDIRSNLNWYQQKPGGAVKLLIYYTSRLHSGVPSRFSGSGSGTDYTLTISSLQPEDFATYFCQQSEKLPRTFGGGTKVEIRRTVAAPSVFIFPPSDEQLKSGTASVVCLLNNFYPREAKVQWKVDNALQSGNSQESVTEQDSKDSTYSLSSTLTLSKADYEKHKVYACEVTHQGLSSPVTKSFNRGEC
notes: copies: 2 + 2
On to B1, for which the concentration giving a half-maximal response (EC50) in test [1] is 0.0572 µg/mL; with Ly048, 486 µg/mL; with Ly050, 0.0722 µg/mL; with human CD137 on cells it was about 0.3 nM. Further, the “EC50 (read off the curve)” value in test [2] was about 0.05 µg/mL.

As usually defined, the EC50 is the concentration at which the effect is half-maximal. By EC50 (read off the curve) is commonly meant the concentration needed to bring the measured effect to its halfway point.
